For assay [1], the target named is human epidermal growth factor receptor, endogenous in HEp-2 cells (human (endogenous in HEp-2)) (UniProt P00533).
The target is the same in assay [2]. The source holds these as a separate data set.

Take “Pmp21 on the surface of C. pneumoniae elementary bodies (from UniProt Q9Z6U5 31-1609) (natural protein)”: the infectivity of C. pneumoniae for cells preincubated 2 h with EGF in assay [1] was found to be 47 % reduction. The infectivity of C. pneumoniae for HEp-2 cells pretreated 2 h with cetuximab in assay [2] was determined as 54 % reduction.

For the origin of these results see article PMC3635982.
